30 sequences from the nanobody polyreactivity screen of Harvey et al. (2022) can be followed below.

A short description of the data set: yeast display, Sf9 membrane polyspecificity reagent, FACS + sequencing; frameworks hold sequencing errors. The method, boiled down: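 Polyreactivity labels are assigned by the sorting gate from which each nanobody was recovered. The gates were low and high (top ~1%), set on anti-HA fluorescence for expression and streptavidin fluorescence for reagent binding. Before sorting, galactose-induced (36–48 hours) yeast display cells were stained for 1 hour at 4 °C with 10% biotinylated, detergent-solubilized Sf9 membrane reagent.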
Consider “QVQLVESGGGLVQAGGSLRLSCAASGSIFDPYAMGWYRQAPGKERELVAAISFSGGSTSYADSVKGRFTISRDNAKNTVYLQMNSLTPEATAVYYCAKRARFYSETDLKPYGFDYWGHGTQVTVSS”, for which the “polyreactivity (PSR sort gate)” value is on record as “low polyreactivity”.
With “QVQLVESGGGLVQAGGSLRLSCAASGSIFDPYAMGWYRQAPGKERELVARISRSGGSTNYADSVKGRFTISRDNAKNTVYLQMNSLKPEDTAVYYCNTPSSREMDYWGQGTQVTVSS” the entry was “low polyreactivity”; with “QVQLVESGGGLVQAGGSLRLSCAASGSIFDQNAMGWYRQAPGKERELVAAITFSGVDTYYADSAKGRFTISRDNAKNTVYLQMNSLKPEDTAVYYCNADRGYNLVRRSQAVVEMDYWGQGTQVTVSS”, “low polyreactivity”; with “QVQLVESGGGLVQAGGSLRLSCAASGSIFDRNAMGWYRQAPGIERELVAAITSRGGSTYYADSVKGRFTISRDNAKNTVYLQMNSLKPEDTAVYYCAARYSSRGTYPRRYDYWGQGTQVTVSS”, “high polyreactivity”.
Take “QVQLVESGGGLVQAGGSLRLSCAASGSIFDRNAMGWYRQAPGKERELVAAITSGGSTYYADSVKGRFTISRDNAKNTVYLQMNSLKPEDTAVYYCNADTDPPVPLYYWGQGTQVTVSS”: the “polyreactivity (PSR sort gate)” value is listed as “low polyreactivity”.
With “QVQLVESGGGLVQAGGSLRLSCAASGSIFDRYALGWYRQAPGKERELVAAISTGGSTNYADSVKGRFTISRDNAKNTVYLQMNSLKPEDTAVYYCAAASPYHEYDYWGQGTQVTVSS” the entry was “low polyreactivity”.
As for “QVQLVESGGGLVQAGGSLRLSCAASGSIFDRYAMGWYRQAPGKERELVAAISRSGGSTYYADSVMGRFTISRDNAKNTVYLQMNSLKPEDTAVYYCAAYQHPGLRTSYEYWGQGTQVTVSS”, the “polyreactivity (PSR sort gate)” value was “low polyreactivity”.
With “QVQLVESGGGLVQAGGSLRLSCAASGSIFDRYAMGWYRQAPGKERELVAAISTGGSTNYADSVKGRFTISRDNAKNTVYLQMNSLKPEDTAVYYCAAERYWVFHGTISYKYDYWGQGTQVTVSS” the entry was “low polyreactivity”; with “QVQLVESGGGLVQAGGSLRLSCAASGSIFDSNAMGWYRQAPGKERELVAAITGSGSTNYADSVKGRFTISRDNAKNTVYLQMNSLKPEDTAVYYCNAQAPYTEFDYWGQGTQVTVSS”, “low polyreactivity”.
With “QVQLVESGGGLVQAGGSLRLSCAASGSIFDSNAMGWYRQAPGKERELVAAITGSGTSTYDADSVKGRFTISRDNAKNTVYLQMNSLKPEDTAVYYCAAAPEYLTDHDYWGQGTQVTVSS” the entry was “low polyreactivity”; with “QVQLVESGGGLVQAGGSLRLSCAASGSIFDSNAMGWYRQAPGKERELVAVITGSGGITYYADSVKGRFTISRDNAKNTVYLQMNRLKPEDTAVYYCYADYYLSEDGTWIYDYWGQGTQVTVSS”, “high polyreactivity”.
With “QVQLVESGGGLVQAGGSLRLSCAASGSIFDSYVMGWYRQAPGKERELVAAITYSGGSTYADSVMGRFTISRDNAKNTVYLQMNSVKPEDTAVYYCAAASYFYLYLLEDYWGQGTQVTVSS” the entry was “low polyreactivity”; with “QVQLVESGGGLVQAGGSLRLSCAASGSIFDTYAMGWYRQATGKERELVSTISWSGDSKYYADSVKGRFTISRDNAKNTVYLQINSLKPEDTAVYYCAADVGQVWDHEDYDYWGQGTQVTVSS”, “low polyreactivity”; with “QVQLVESGGGLVQAGGSLRLSCAASGSIFDVNAMGWYRQATGKERELVAAISDSGGSTYYADSVKGRFTISRDNAKNTVYLQMNSLKPEDTAVYYSNADWSWYNYYDFDYWGHGTQVTVSS”, “low polyreactivity”.
In the case of “QVQLVESGGGLVQAGGSLRLSCAASGSIFDVNSMGWYRQAPGKERELVAAISDSGGSTYYADSVKGRFTISRDNAKNTVYLQMNSLKPEDTAVYYCNADWSWYNYYDFDYLGQGTQVTVSS”, the “polyreactivity (PSR sort gate)” value is reported as “low polyreactivity”.
In the case of “QVQLVESGGGLVQAGGSLRLSCAASGSIFDVNTMGWYSQAPGKERELVAGITSRGGSTYYADSVKGRFTISRDNAKNTVYLQMNSLKPEDTAVYYCAKRAYGTALYRGYGYWGQGTQVTVSS” it was “low polyreactivity”; in that of “QVQLVESGGGLVQAGGSLRLSCAASGSIFDVYAMGWYRQAPGKERELVAAIDSGGSSTYYADSVKGRFTISRDNAKNTVYLQMNSLKPEDTAVYYCAARPYYSWNYDYWGQGTQVTVSS”, “low polyreactivity”.
With “QVQLVESGGGLVQAGGSLRLSCAASGSIFDVYAMGWYRQAPGKERELVAAITFDGGSTYYADSVKGRFTISRDNAKNTVYLQMNSLKPEDTAVYDCNAEFYFLWDWQSFDYWGQGTQVTVSS” the entry was “high polyreactivity”; with “QVQLVESGGGLVQAGGSLRLSCAASGSIFDVYTMGWYRQAPGKERELVAAISQSTGSTYYAASVKGRFTISRDNAKNTVYLQMNSLIPEDTAVYYCNAKFRFVTYKTPYVFWGQVTQVTVSS”, “low polyreactivity”.
In the case of “QVQLVESGGGLVQAGGSLRLSCAASGSIFDWYAMGCYRQAPGKEGELVAAISSGDSTYYADSVKGRFTISRDNAKNTVYLQMNSLKPEDTAVYYCAAVTKLSGIRYNYWGQGTQVTVSS” it was “low polyreactivity”; in that of “QVQLVESGGGLVQAGGSLRLSCAASGSIFDYNAMGWNRQAPGKETELVAAITSTDSTYADSVKGRFTISRDNAKNTVYLQMNSLKPEDTAVYYCAAEDVIYYLTGQWREYDYWGQGTQVNVSS”, “low polyreactivity”.
For the sequence “QVQLVESGGGLVQAGGSLRLSCAASGSIFDYNAMGWYRQAPGKERELVAAINYSGTRTYYADSVKGRFTISRDNAKNTVYLQMNSLKPEDTADYYCAARVRVPQTARLHEYWGQGTQVTVSS”, the “polyreactivity (PSR sort gate)” value is on record as “high polyreactivity”.
Regarding “QVQLVESGGGLVQAGGSLRLSCAASGSIFDYNAMGWYRQAPGKERELVAAISSGGSTYYADSVKGRFTISRDNAKNTVYLQMNSLKPEDTAVYYCAVKFWYHIYDYWGQGTQVTVSS”, the “polyreactivity (PSR sort gate)” value is “low polyreactivity”.
As to “QVQLVESGGGLVQAGGSLRLSCAASGSIFDYNTMGWYRQAPGKERELVAAISSNGGSTYYADSVKGRFTISRDNAKNTVYLQMNSRNPEDTAVYYCAVSIYVYHLDLEYWGQGTQVTVSS”, the “polyreactivity (PSR sort gate)” value is “low polyreactivity”.
In the case of “QVQLVESGGGLVQAGGSLRLSCAASGSIFDYYAMGWYRQAPGKERELVAAISESSDSTYYADSVKGRFTISRDNAKNTVYLQMNSLKPEDTAVYYCAAYRGTLLTAYDYWGQGTQVTVSS”, the “polyreactivity (PSR sort gate)” value was “low polyreactivity”.
Consider “QVQLVESGGGLVQAGGSLRLSCAASGSIFDYYDMGWYRQAPGKERELVAAINWSGGITYYADSVKGRFTISRDNAKNTVYLQMNSLKPEDTAVYYCAADWYQWVYSSSITSFDYWGQGTQVTVSS”, for which the “polyreactivity (PSR sort gate)” value is listed as “low polyreactivity”.
For the sequence “QVQLVESGGGLVQAGGSLRLSCAASGSIFDYYTMGWYRQAPGKERELVAAISWSGGSTYYADSVKGRFTISRDNAKNTVYLQMNSLKPEDTAVYYCNAVGYSRYTVWSYYYWGQGTQVTVSS”, the “polyreactivity (PSR sort gate)” value is listed as “high polyreactivity”.
Turning to “QVQLVESGGGLVQAGGSLRLSCAASGSIFEANDMGWYRQAPGKERELVAAIDANTGSTYYADSVKGRFTISRDNAKNTVYLQMNSLKPEDTAVYYCNAQVYLHTAYDYWGQGTQVTVSS”, the “polyreactivity (PSR sort gate)” value is recorded as “low polyreactivity”.
As for “QVQLVESGGGLVQAGGSLRLSCAASGSIFEAYVMGWYRQAPGKQRELVAAITTGGGSTYYADSVKWRFTISRDNAKNTVYLQMNSLKPEDTAVYYCGKDYWFGYEYWGQGTQVTVSS”, the “polyreactivity (PSR sort gate)” value is on record as “low polyreactivity”.
In the case of “QVQLVESGGGLVQAGGSLRLSCAASGSIFEDYAMGWYRQAPGKERELVAGINWSGGSTYYADSVKGRFTISRDNAKNTVYLQMNSLKPEDTAVYYCAAKAFYYYYTEHDYWGQGTQVTVSS” it was “high polyreactivity”.
